# In article PMC5421356 (Molecular genetics and metabolism, 2017):
# B1: human tryptophan 2,3-dioxygenase (40-390), Met108Ile variant (enzyme, UniProt P48775 40-390, looked up)
# chain: LIYGNYLHLEKVLNAQELQSETKGNKIHDEHLFIITHQAYELWFKQILWELDSVREIFQNGHVRDERNILKVVSRMHRVSVILKLLVQQFSILETMTALDFNDFREYLSPASGFQSLQFRLLENKIGVLQNMRVPYNRRHYRDNFKGEENELLLKSEQEKTLLELVEAWLERTPGLEPHGFNFWGKLEKNITRGLEEEFIRIQAKEESEEKEEQVAEFQKQKEVLLSLFDEKRHEHLLSKGERRLSYRALQGALMIYFYREEPRFQVPFQLLTSLMDIDSLMTKWRYNHVCMVHRMLGSKAGTGGSSGYHYLRSTVSDRYKVFVDLFNLSTYLIPRHWIPKMNPTIHKFLY
# Biological target: the molecule itself
# Test: SEC
protein,measurement,value
B1,stoichiometry N,4
